Reference: publication PMC9482650, “Quantitative fragmentomics allow affinity mapping of interactomes” (Nature Communications, 2022)
Positions count from the first letter of the chain named.

B1: SLC4A7, Q9Y6M7 (peptide)
chain: KKYVDAETSL
B2: HPV18-E6, P06463 (peptide)
chain: RLQRRRETQV

The binders below were run against HTRA2, O43464 (assay: holdup assay). Conditions: plain residues with an end cap or a label only (N-terminal biotin on a linker: ttds).
HTRA2, O43464, sequence (O43464 355-458): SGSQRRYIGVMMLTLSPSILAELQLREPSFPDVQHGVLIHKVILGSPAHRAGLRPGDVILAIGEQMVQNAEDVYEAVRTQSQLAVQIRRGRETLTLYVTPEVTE
Set-up: key: below the threshold = too weak to quantify, mostly under pKd 3.1 to 4
For B1, the pKd was “below the threshold”.
For B2, the pKd was “below the threshold”.

These binders were tested against PDLIM1, O00151 (assay: holdup assay). Conditions: plain residues with an end cap or a label only (N-terminal biotin on a linker: ttds).
PDLIM1, O00151, sequence (O00151 1-87): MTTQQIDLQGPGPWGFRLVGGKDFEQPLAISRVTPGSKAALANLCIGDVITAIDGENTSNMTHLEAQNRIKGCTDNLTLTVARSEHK
Set-up: key: below the threshold = too weak to quantify, mostly under pKd 3.1 to 4
B1 was tested, and the pKd was “below the threshold”.
With B2 the pKd was “below the threshold”.

These binders were tested against T1, SNTG2, Q9NY99 (assay: holdup assay). Conditions: plain residues with an end cap or a label only (N-terminal biotin on a linker: ttds).
T1 sequence (Q9NY99 68-166, limits assumed, looked up): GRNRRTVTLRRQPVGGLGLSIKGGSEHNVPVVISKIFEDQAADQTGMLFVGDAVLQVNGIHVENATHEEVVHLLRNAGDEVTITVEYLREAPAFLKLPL
Set-up: key: below the threshold = too weak to quantify, mostly under pKd 3.1 to 4
B1 gave a pKd of 4.33.
In the case of B2, the pKd is reported as 4.03.

These binders were tested against MAST1, Q9Y2H9 (assay: holdup assay). Conditions: plain residues with an end cap or a label only (N-terminal biotin on a linker: ttds).
MAST1, Q9Y2H9, sequence (Q9Y2H9 962-1065): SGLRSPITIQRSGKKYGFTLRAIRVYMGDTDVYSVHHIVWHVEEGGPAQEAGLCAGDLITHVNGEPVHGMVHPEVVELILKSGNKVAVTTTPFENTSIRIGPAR
Set-up: key: below the threshold = too weak to quantify, mostly under pKd 3.1 to 4
For B1, the pKd was 5.32.
B2 was tested, and the pKd was 5.33.

What follows are binders tested against LNX1_1, Q8TBB1 (assay: holdup assay). Conditions: plain residues with an end cap or a label only (N-terminal biotin on a linker: ttds).
LNX1_1, Q8TBB1, sequence (Q8TBB1 261-371): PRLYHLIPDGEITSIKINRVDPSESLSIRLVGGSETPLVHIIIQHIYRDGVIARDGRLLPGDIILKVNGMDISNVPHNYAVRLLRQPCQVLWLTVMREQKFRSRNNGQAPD
Set-up: key: below the threshold = too weak to quantify, mostly under pKd 3.1 to 4
With B1 the pKd was “below the threshold”.
With B2 the pKd was “below the threshold”.

Each binder was assayed against MAGI2_5, Q86UL8 (assay: holdup assay). Conditions: plain residues with an end cap or a label only (N-terminal biotin on a linker: ttds).
MAGI2_5, Q86UL8, sequence (Q86UL8 915-1017): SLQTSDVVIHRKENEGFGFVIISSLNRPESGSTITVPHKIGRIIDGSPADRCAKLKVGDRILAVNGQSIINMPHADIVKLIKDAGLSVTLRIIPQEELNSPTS
Set-up: key: below the threshold = too weak to quantify, mostly under pKd 3.1 to 4
B1 was tested, and the pKd was 3.52.
Work on B2 yielded a pKd of 3.78.

Each binder was assayed against ARHGEF12, Q9NZN5-2 (assay: holdup assay). Conditions: plain residues with an end cap or a label only (N-terminal biotin on a linker: ttds).
ARHGEF12, Q9NZN5-2, sequence (Q9NZN5 other isoform, or with tags, fused parts or gaps): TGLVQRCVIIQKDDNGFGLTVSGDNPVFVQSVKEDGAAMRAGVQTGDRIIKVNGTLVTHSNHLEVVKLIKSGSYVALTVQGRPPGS
Set-up: key: below the threshold = too weak to quantify, mostly under pKd 3.1 to 4
B1 showed a pKd of 4.29.
B2 showed a pKd of 3.91.

Each binder was assayed against GORASP1, Q9BQQ3 (assay: holdup assay). Conditions: plain residues with an end cap or a label only (N-terminal biotin on a linker: ttds).
GORASP1, Q9BQQ3, sequence (Q9BQQ3 1-208): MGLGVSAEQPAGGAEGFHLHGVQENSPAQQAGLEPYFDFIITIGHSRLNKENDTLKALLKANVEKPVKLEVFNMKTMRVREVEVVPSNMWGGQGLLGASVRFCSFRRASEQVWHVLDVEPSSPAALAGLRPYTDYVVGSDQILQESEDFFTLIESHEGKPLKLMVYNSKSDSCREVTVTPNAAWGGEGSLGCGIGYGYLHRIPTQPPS
Set-up: key: below the threshold = too weak to quantify, mostly under pKd 3.1 to 4
In the case of B1, the pKd is reported as “below the threshold”.
For B2, the pKd was “below the threshold”.

Each binder was assayed against NHERF2_2, Q15599 (assay: holdup assay). Conditions: plain residues with an end cap or a label only (N-terminal biotin on a linker: ttds).
NHERF2_2, Q15599, sequence (Q15599 142-238): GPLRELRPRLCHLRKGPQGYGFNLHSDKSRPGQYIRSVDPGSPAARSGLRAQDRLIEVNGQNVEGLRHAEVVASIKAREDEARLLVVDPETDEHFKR
Set-up: key: below the threshold = too weak to quantify, mostly under pKd 3.1 to 4
Binder B1 has a pKd of 4.62.
For B2, the pKd was “below the threshold”.

These binders were tested against PARD3_3, Q8TEW0 (assay: holdup assay). Conditions: plain residues with an end cap or a label only (N-terminal biotin on a linker: ttds).
PARD3_3, Q8TEW0, sequence (Q8TEW0 582-685): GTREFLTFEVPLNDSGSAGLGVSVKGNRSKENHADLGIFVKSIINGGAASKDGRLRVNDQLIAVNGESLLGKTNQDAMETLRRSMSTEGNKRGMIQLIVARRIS
Set-up: key: below the threshold = too weak to quantify, mostly under pKd 3.1 to 4
B1 showed a pKd of 3.62.
With B2 the pKd was “below the threshold”.

What follows are binders tested against T2, LIN7B, Q9HAP6 (assay: holdup assay). Conditions: plain residues with an end cap or a label only (N-terminal biotin on a linker: ttds).
T2 sequence (Q9HAP6 88-185, limits assumed, looked up): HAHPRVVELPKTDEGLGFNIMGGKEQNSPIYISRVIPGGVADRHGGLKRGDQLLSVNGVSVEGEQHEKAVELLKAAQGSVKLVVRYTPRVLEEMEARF
Set-up: key: below the threshold = too weak to quantify, mostly under pKd 3.1 to 4
B1 was tested, and the pKd was 3.53.
For B2, the pKd was 3.58.

Each binder was assayed against CASK, O14936 (assay: holdup assay). Conditions: plain residues with an end cap or a label only (N-terminal biotin on a linker: ttds).
CASK, O14936, sequence (O14936 487-570): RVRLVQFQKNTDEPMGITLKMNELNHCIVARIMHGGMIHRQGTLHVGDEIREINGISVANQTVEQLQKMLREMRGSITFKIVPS
Set-up: key: below the threshold = too weak to quantify, mostly under pKd 3.1 to 4
For B1, the pKd was “below the threshold”.
B2 was tested, and the pKd was “below the threshold”.

The binders below were run against SNX27, Q96L92 (assay: holdup assay). Conditions: plain residues with an end cap or a label only (N-terminal biotin on a linker: ttds).
Set-up: key: below the threshold = too weak to quantify, mostly under pKd 3.1 to 4
B1 showed a pKd of 5.71.
In the case of B2, the pKd is reported as 4.55.

The binders below were run against PTPN3, P26045 (assay: holdup assay). Conditions: plain residues with an end cap or a label only (N-terminal biotin on a linker: ttds).
PTPN3, P26045, sequence (P26045 505-587): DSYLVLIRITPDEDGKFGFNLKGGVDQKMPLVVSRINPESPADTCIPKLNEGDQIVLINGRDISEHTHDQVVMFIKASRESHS
Set-up: key: below the threshold = too weak to quantify, mostly under pKd 3.1 to 4
With B1 the pKd was 5.04.
With B2 the pKd was 4.49.

The binders below were run against Inadl_8, Q8NI35 (assay: holdup assay). Conditions: plain residues with an end cap or a label only (N-terminal biotin on a linker: ttds).
Inadl_8, Q8NI35, sequence (Q8NI35 1425-1530): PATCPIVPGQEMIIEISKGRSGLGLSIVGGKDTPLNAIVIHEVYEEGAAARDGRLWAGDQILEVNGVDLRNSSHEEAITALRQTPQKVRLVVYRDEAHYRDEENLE
Set-up: key: below the threshold = too weak to quantify, mostly under pKd 3.1 to 4
For B1, the pKd was “below the threshold”.
B2 was tested, and the pKd was 3.32.

Each binder was assayed against TJP1_2, Q07157 (assay: holdup assay). Conditions: plain residues with an end cap or a label only (N-terminal biotin on a linker: ttds).
TJP1_2, Q07157, sequence (Q07157 181-274): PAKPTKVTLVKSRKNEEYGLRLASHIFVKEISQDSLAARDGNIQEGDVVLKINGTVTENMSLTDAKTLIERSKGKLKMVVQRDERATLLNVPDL
Set-up: key: below the threshold = too weak to quantify, mostly under pKd 3.1 to 4
For B1, the pKd was “below the threshold”.
For B2, the pKd was “below the threshold”.

What follows are binders tested against T3, DLG3_3, Q92796 (assay: holdup assay). Conditions: plain residues with an end cap or a label only (N-terminal biotin on a linker: ttds).
T3 sequence (Q92796 374-475, limits assumed, looked up): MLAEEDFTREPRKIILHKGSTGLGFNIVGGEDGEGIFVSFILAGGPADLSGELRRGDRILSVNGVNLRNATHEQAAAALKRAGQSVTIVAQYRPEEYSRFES
Set-up: key: below the threshold = too weak to quantify, mostly under pKd 3.1 to 4
Binder B1 has a pKd of 3.79.
With B2 the pKd was 5.44.

These binders were tested against Inadl_1, Q8NI35 (assay: holdup assay). Conditions: plain residues with an end cap or a label only (N-terminal biotin on a linker: ttds).
Inadl_1, Q8NI35, sequence (Q8NI35 113-229): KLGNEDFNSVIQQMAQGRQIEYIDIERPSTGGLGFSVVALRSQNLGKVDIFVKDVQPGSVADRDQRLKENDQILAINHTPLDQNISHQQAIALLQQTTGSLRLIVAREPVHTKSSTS
Set-up: key: below the threshold = too weak to quantify, mostly under pKd 3.1 to 4
B1 was tested, and the pKd was 3.55.
B2 was tested, and the pKd was “below the threshold”.

These binders were tested against T4, APBA1_1, Q02410 (assay: holdup assay). Conditions: plain residues with an end cap or a label only (N-terminal biotin on a linker: ttds).
T4 sequence (Q02410 651-752, limits assumed, looked up): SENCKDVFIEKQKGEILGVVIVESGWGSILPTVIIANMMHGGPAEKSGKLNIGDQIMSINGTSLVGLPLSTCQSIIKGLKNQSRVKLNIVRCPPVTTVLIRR
Set-up: key: below the threshold = too weak to quantify, mostly under pKd 3.1 to 4
In the case of B1, the pKd is reported as “below the threshold”.
In the case of B2, the pKd is reported as “below the threshold”.

What follows are binders tested against NHERF4_1, Q86UT5-2 (assay: holdup assay). Conditions: plain residues with an end cap or a label only (N-terminal biotin on a linker: ttds).
NHERF4_1, Q86UT5-2, sequence (Q86UT5 other isoform, or with tags, fused parts or gaps): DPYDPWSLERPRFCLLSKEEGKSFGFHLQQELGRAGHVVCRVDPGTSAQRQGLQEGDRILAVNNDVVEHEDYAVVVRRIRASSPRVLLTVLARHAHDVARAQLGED
Set-up: key: below the threshold = too weak to quantify, mostly under pKd 3.1 to 4
B1 gave a pKd of 3.49.
With B2 the pKd was “below the threshold”.

What follows are binders tested against SCRIB_2, Q14160 (assay: holdup assay). Conditions: plain residues with an end cap or a label only (N-terminal biotin on a linker: ttds).
SCRIB_2, Q14160, sequence (Q14160 857-960): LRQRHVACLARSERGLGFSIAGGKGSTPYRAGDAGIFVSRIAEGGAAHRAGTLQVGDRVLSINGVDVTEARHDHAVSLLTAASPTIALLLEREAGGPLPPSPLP
Set-up: key: below the threshold = too weak to quantify, mostly under pKd 3.1 to 4
In the case of B1, the pKd is reported as 3.77.
For B2, the pKd was 4.44.

What follows are binders tested against T5, GRIP1_2, Q9Y3R0 (assay: holdup assay). Conditions: plain residues with an end cap or a label only (N-terminal biotin on a linker: ttds).
T5 sequence (Q9Y3R0 145-248, limits assumed, looked up): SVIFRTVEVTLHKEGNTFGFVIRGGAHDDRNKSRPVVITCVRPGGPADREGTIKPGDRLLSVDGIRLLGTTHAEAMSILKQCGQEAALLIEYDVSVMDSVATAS
Set-up: key: below the threshold = too weak to quantify, mostly under pKd 3.1 to 4
In the case of B1, the pKd is reported as “below the threshold”.
With B2 the pKd was “below the threshold”.

Each binder was assayed against SCRIB_3, Q14160 (assay: holdup assay). Conditions: plain residues with an end cap or a label only (N-terminal biotin on a linker: ttds).
SCRIB_3, Q14160, sequence (Q14160 999-1103): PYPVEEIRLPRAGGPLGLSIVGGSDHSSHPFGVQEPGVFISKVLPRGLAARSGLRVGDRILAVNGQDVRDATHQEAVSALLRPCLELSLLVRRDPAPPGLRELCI
Set-up: key: below the threshold = too weak to quantify, mostly under pKd 3.1 to 4
In the case of B1, the pKd is reported as 5.09.
With B2 the pKd was 4.84.

The binders below were run against MAST2, Q6P0Q8 (assay: holdup assay). Conditions: plain residues with an end cap or a label only (N-terminal biotin on a linker: ttds).
MAST2, Q6P0Q8, sequence (Q6P0Q8 1099-1202): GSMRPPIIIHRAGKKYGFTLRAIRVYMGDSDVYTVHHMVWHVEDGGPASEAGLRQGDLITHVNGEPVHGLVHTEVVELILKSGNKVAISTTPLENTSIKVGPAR
Set-up: key: below the threshold = too weak to quantify, mostly under pKd 3.1 to 4
B1 was tested, and the pKd was 6.38.
B2 was tested, and the pKd was 4.78.

These binders were tested against MAGI2_3, Q86UL8 (assay: holdup assay). Conditions: plain residues with an end cap or a label only (N-terminal biotin on a linker: ttds).
MAGI2_3, Q86UL8, sequence (Q86UL8 600-682): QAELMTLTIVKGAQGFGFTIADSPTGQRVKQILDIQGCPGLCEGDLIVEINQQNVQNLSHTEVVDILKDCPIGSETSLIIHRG
Set-up: key: below the threshold = too weak to quantify, mostly under pKd 3.1 to 4
With B1 the pKd was “below the threshold”.
Work on B2 yielded a pKd of 4.15.

The binders below were run against T6, LIN7C, Q9NUP9 (assay: holdup assay). Conditions: plain residues with an end cap or a label only (N-terminal biotin on a linker: ttds).
T6 sequence (Q9NUP9 88-185, limits assumed, looked up): T2 sequence (Q9HAP6 88-185, limits assumed, looked up) with A2S, D13E, V35I, V40I, Q65H, S79K, R89K, A96S
Set-up: key: below the threshold = too weak to quantify, mostly under pKd 3.1 to 4
With B1 the pKd was 3.81.
B2 showed a pKd of 4.17.

What follows are binders tested against SCRIB_1, Q14160 (assay: holdup assay). Conditions: plain residues with an end cap or a label only (N-terminal biotin on a linker: ttds).
SCRIB_1, Q14160, sequence (Q14160 718-814): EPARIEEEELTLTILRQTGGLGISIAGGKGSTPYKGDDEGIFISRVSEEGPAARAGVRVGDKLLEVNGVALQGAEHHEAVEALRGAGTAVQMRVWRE
Set-up: key: below the threshold = too weak to quantify, mostly under pKd 3.1 to 4
With B1 the pKd was 5.54.
B2 gave a pKd of 4.26.

Each binder was assayed against T7, GRIP1_7, Q9Y3R0 (assay: holdup assay). Conditions: plain residues with an end cap or a label only (N-terminal biotin on a linker: ttds).
T7 sequence (Q9Y3R0 999-1096, limits assumed, looked up): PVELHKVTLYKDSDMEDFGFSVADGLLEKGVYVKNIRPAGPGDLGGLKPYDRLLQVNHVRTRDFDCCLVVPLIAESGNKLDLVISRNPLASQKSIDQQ
Set-up: key: below the threshold = too weak to quantify, mostly under pKd 3.1 to 4
In the case of B1, the pKd is reported as “below the threshold”.
With B2 the pKd was “below the threshold”.

Each binder was assayed against AHNAK1, Q09666 (assay: holdup assay). Conditions: plain residues with an end cap or a label only (N-terminal biotin on a linker: ttds).
AHNAK1, Q09666, sequence (Q09666 4-100): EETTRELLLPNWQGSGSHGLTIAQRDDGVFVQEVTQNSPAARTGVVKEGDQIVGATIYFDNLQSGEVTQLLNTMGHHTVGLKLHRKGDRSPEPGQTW
Set-up: key: below the threshold = too weak to quantify, mostly under pKd 3.1 to 4
B1 was tested, and the pKd was “below the threshold”.
For B2, the pKd was “below the threshold”.

What follows are binders tested against MAGI3_2, Q5TCQ9 (assay: holdup assay). Conditions: plain residues with an end cap or a label only (N-terminal biotin on a linker: ttds).
MAGI3_2, Q5TCQ9, sequence (Q5TCQ9 398-503): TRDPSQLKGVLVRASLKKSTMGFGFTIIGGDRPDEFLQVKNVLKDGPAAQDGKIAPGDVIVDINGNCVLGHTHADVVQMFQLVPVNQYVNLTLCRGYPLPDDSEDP
Set-up: key: below the threshold = too weak to quantify, mostly under pKd 3.1 to 4
For B1, the pKd was “below the threshold”.
B2 gave a pKd of 5.56.

Each binder was assayed against T8, TJP3_3, O95049 (assay: holdup assay). Conditions: plain residues with an end cap or a label only (N-terminal biotin on a linker: ttds).
T8 sequence (O95049 375-456, limits assumed, looked up): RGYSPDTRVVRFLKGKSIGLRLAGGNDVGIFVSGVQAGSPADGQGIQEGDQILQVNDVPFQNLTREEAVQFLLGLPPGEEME
Set-up: key: below the threshold = too weak to quantify, mostly under pKd 3.1 to 4
In the case of B1, the pKd is reported as “below the threshold”.
With B2 the pKd was “below the threshold”.
